# Data as given in paper PMC8191293.
# Residue numbers refer to the chain shown, from its start. Names and notes keep the numbering of the source.
# B1: peripheral myelin protein 22 (PMP22): L16P/N41Q (protein)
# parent chain: MLLLLLSIIVLHVAVPVLLFVSTIVSQWIVGNGHATDLWQNCSTSSSGNVHHCFSSSPNEWLQSVQATMILSIIFSILSLFLFFCQLFTLTKGGRFYITGIFQILAGLCVMSAAAIYTVRHPEWHLNSDYSYGFAYILAWVAFPLALLSGVIYVILRKRE
# B2: peripheral myelin protein 22 (PMP22): C19 (protein)
# parent chain: B1 parent chain with P16L
# B3: peripheral myelin protein 22 (PMP22): UGGT1 KO (protein)
# parent chain: B1 parent chain with P16L
# B4: peripheral myelin protein 22 (PMP22): G93R/N41Q (protein)
# parent chain: B1 parent chain with P16L, G93R
# B5: peripheral myelin protein 22 (PMP22): N41Q (protein)
# parent chain: B1 parent chain with P16L
# B6: peripheral myelin protein 22 (PMP22): STT3B KO (protein)
# parent chain: B1 parent chain with P16L
# B7: peripheral myelin protein 22 (PMP22): T118M/N41Q (protein)
# parent chain: B1 parent chain with P16L, T118M
# B8: peripheral myelin protein 22 (PMP22): NGI-1 (protein)
# parent chain: B1 parent chain with P16L
# B9: peripheral myelin protein 22 (PMP22): A67T/N41Q (protein)
# parent chain: B1 parent chain with P16L, A67T
# B10: peripheral myelin protein 22 (PMP22): STT3A KO (protein)
# parent chain: B1 parent chain with P16L
# Columns and labels:
# [1] = flow cytometry, total cellular PMP22, HEK293; conditions: glycan lost; control: same variant with N41 intact
# [2] = flow cytometry, cell surface PMP22, rat Schwann cells; conditions: glycan lost; control: same variant with N41 intact
# [3] = flow cytometry, total PMP22, primary rat Schwann cells; conditions: glycan lost; control: same variant with N41 intact
# [4] = single-cell flow cytometry, surface/total PMP22, HEK293; conditions: glycan lost
# [5] = flow cytometry, trafficking efficiency, rat Schwann cells; conditions: glycan lost; control: same variant with N41 intact
# [6] = flow cytometry, normalized trafficking efficiency of WT PMP22; conditions: glycan lost; control: WT PMP22 in untreated or DMSO-treated HEK293
# [7] = flow cytometry, total cellular PMP22; conditions: glycan changed form; control: WT PMP22 in parental HEK293
# [8] = flow cytometry, trafficking efficiency; conditions: glycan changed form; control: WT PMP22 in parental HEK293
# [9] = flow cytometry, cell surface PMP22, HEK293; conditions: glycan lost; control: same CMTD variant with N41 intact
# [10] = flow cytometry, trafficking efficiency of CMTD PMP22 variants; conditions: glycan lost; control: same CMTD variant in untreated HEK293
Protein,expression_or_secretion [1],"localisation_or_trafficking, fold_change [6]",localisation_or_trafficking [9],localisation_or_trafficking [10],further results
B1,no change,,,,"localisation_or_trafficking [2]: increases; expression_or_secretion [3]: no change; localisation_or_trafficking, other: trafficking efficiency ([4]; control: L16P PMP22): increases, 34 ± 10 vs 3 ± 1; localisation_or_trafficking [5]: increases"
B2,,increases,,,
B3,,,,,expression_or_secretion [7]: decreases; localisation_or_trafficking [8]: decreases
B4,increases,,increases,,
B5,,,,,"localisation_or_trafficking, other: trafficking efficiency ([4]; control: wild type): increases, 53 ± 7 vs 19 ± 5"
B6,,increases,,no change,
B7,increases,,increases,,
B8,,increases,,increases,
B9,increases,,increases,,
B10,,no change,,no change,
